Reference: the supplement of paper PMC9170038

Tested on: K4 kissing-loop RNA reporter
Test: apparent KD of K4 kissing-loop reporter; higher = weaker reporter binding
Settings: Eterna round: R107
Protocol: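 RNA-MaP round R107: designed RNA switches with theophylline, tryptophan, arginine or FMN aptamers are transcribed on-chip within common flanks. They are titrated with a labelled K4 kissing-loop RNA reporter in RNA-MaP buffer (100 mM Tris pH 7.5, 80 mM KCl, 4 mM MgCl2), without ligand or with the indicated ligand. Median apparent KD per design.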

[1] = input ligand: theophylline 20 uM
[2] = input ligand: tryptophan 2.4 mM
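Further: bound reporter read as fluorescence of individual clusters on recovered sequencing chips by microscopy, with normalized cluster intensities fitted with a binding model.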

UAUCAGAUUACUGAUACCAGUCUAAAGACAGUGAUGUUGUCUGAUCGACCACGAUCCAAGGACCCUUGGCAGCAGUGUACUAUUC [#30 K4 Theophylline B Same State]
apparent KD of K4 kissing-loop reporter (input ligand: FMN 200 uM): 177 nM | apparent KD of K4 kissing-loop reporter (input ligand: arginine 13.2 mM): 183 nM | apparent KD of K4 kissing-loop reporter (input ligand: none): 194 nM | apparent KD of K4 kissing-loop reporter [1]: 205 nM | apparent KD of K4 kissing-loop reporter [2]: 191 nM

UAUUAAUUGACGGCCGCCACUAUGGUGAUUUAUUUGUUUGAGUGAUGUUUUGAUGUUUGAUUUUGUAGGACCGGGUUAUGUGUUA [pokcmullin]
apparent KD of K4 kissing-loop reporter (input ligand: FMN 200 uM): 962 nM | apparent KD of K4 kissing-loop reporter (input ligand: arginine 13.2 mM): 738 nM | apparent KD of K4 kissing-loop reporter (input ligand: none): 853 nM | apparent KD of K4 kissing-loop reporter [1]: 748 nM | apparent KD of K4 kissing-loop reporter [2]: 680 nM

UAUUAAUUGUCAGGAUAUCGUAUUCGAGUGAUGUUCGUAUAUCGACGAUAGUCGAUAUUAUUUAUACGAGAAGGGACAUUAUUUA [JR_SSFMNB_Sub005]
apparent KD of K4 kissing-loop reporter (input ligand: FMN 200 uM): 292 nM | apparent KD of K4 kissing-loop reporter (input ligand: arginine 13.2 mM): 260 nM | apparent KD of K4 kissing-loop reporter (input ligand: none): 330 nM | apparent KD of K4 kissing-loop reporter [1]: 274 nM | apparent KD of K4 kissing-loop reporter [2]: 285 nM

UAUUUAUUAACUGAUACCAGACUUAAUGAAUUGUAAAUUACUAGUGAUGUUAGUGAAUCUGUCCCUUGGCAGCAGUAUUUAUUAA [JR_Nu_ExcTheophyB_Sub028]
apparent KD of K4 kissing-loop reporter (input ligand: FMN 200 uM): 111 nM | apparent KD of K4 kissing-loop reporter (input ligand: arginine 13.2 mM): 169 nM | apparent KD of K4 kissing-loop reporter (input ligand: none): 128 nM | apparent KD of K4 kissing-loop reporter [1]: 170 nM | apparent KD of K4 kissing-loop reporter [2]: 85.1 nM

UCAUCGGUACAAGGAUAUUAGAGGUAGUGAUGUUACCCGUUUUUUAUACAUCGAUGUCACCCUAACUAAGAAGGUGUUCAAACUU [theeternabot_exclusion_KL_FMN_B_7]
apparent KD of K4 kissing-loop reporter (input ligand: FMN 200 uM): 62.5 nM | apparent KD of K4 kissing-loop reporter (input ligand: arginine 13.2 mM): 52.7 nM | apparent KD of K4 kissing-loop reporter (input ligand: none): 50.2 nM | apparent KD of K4 kissing-loop reporter [1]: 54 nM | apparent KD of K4 kissing-loop reporter [2]: 38.4 nM

UCCACGCUUAGAGGAUAUCGGAUUAGAGUGAUGUUCUAAAGAAGCCCAGUGAUGUUGGAUGGUAUACGAGAAGGCUGAGGCGUGG [Same State FMN B GF 3]
apparent KD of K4 kissing-loop reporter (input ligand: FMN 200 uM): 229 nM | apparent KD of K4 kissing-loop reporter (input ligand: arginine 13.2 mM): 629 nM | apparent KD of K4 kissing-loop reporter (input ligand: none): 725 nM | apparent KD of K4 kissing-loop reporter [1]: 588 nM | apparent KD of K4 kissing-loop reporter [2]: 492 nM

UCCUGCAAUCGGCCACGAAAGUGGAUGGAUACCAGAGUCGAAAGACUCCCUUGGCAGCCAGUGAUGUUGGAAGCAGGUAAAUAAA
apparent KD of K4 kissing-loop reporter (input ligand: FMN 200 uM): 838 nM | apparent KD of K4 kissing-loop reporter (input ligand: arginine 13.2 mM): 499 nM | apparent KD of K4 kissing-loop reporter (input ligand: none): 470 nM | apparent KD of K4 kissing-loop reporter [1]: 538 nM | apparent KD of K4 kissing-loop reporter [2]: 505 nM

UCCUGCAAUCGUCCACGAAAGUGGAUUGAUACCAGAGUCGAAAGACUCCCUUGGCAGCGAGUGAUGUUCGAAGCAGGUAAAUAAA
apparent KD of K4 kissing-loop reporter (input ligand: FMN 200 uM): 432 nM | apparent KD of K4 kissing-loop reporter (input ligand: arginine 13.2 mM): 365 nM | apparent KD of K4 kissing-loop reporter (input ligand: none): 417 nM | apparent KD of K4 kissing-loop reporter [1]: 363 nM | apparent KD of K4 kissing-loop reporter [2]: 337 nM

UCCUGCAAUCUACCACGAAAGUGGAUGGAUACCAGAGUCGAAAGACUCCCUUGGCAGCCAGUGAUGUUGGAGCAGGUAAAAUAAA
apparent KD of K4 kissing-loop reporter (input ligand: FMN 200 uM): 670 nM | apparent KD of K4 kissing-loop reporter (input ligand: arginine 13.2 mM): 462 nM | apparent KD of K4 kissing-loop reporter (input ligand: none): 638 nM | apparent KD of K4 kissing-loop reporter [1]: 514 nM | apparent KD of K4 kissing-loop reporter [2]: 529 nM

UCGGACCCUGGAGGAUAUGAGUCGAGUGAUGUUUGGCGGUCCAUGCCGGUGCGGCGUUAUGCCCUUUUAGAAGGCCAGGGUCCGA [#2 Exclusion - FMN B Attempt #13 (HarryS)]
apparent KD of K4 kissing-loop reporter (input ligand: FMN 200 uM): 287 nM | apparent KD of K4 kissing-loop reporter (input ligand: arginine 13.2 mM): 182 nM | apparent KD of K4 kissing-loop reporter (input ligand: none): 307 nM | apparent KD of K4 kissing-loop reporter [1]: 351 nM | apparent KD of K4 kissing-loop reporter [2]: 289 nM

UCUGCAAAGUCGGCCGCCACUCCGGGCCCUAUAAAUGGGCGCAGUGAUGUUGCGGCUAGGCCUCUGAGGACCGGGACUUUAUAGA [Anarisgema]
apparent KD of K4 kissing-loop reporter (input ligand: FMN 200 uM): 37.4 nM | apparent KD of K4 kissing-loop reporter (input ligand: arginine 13.2 mM): 45.8 nM | apparent KD of K4 kissing-loop reporter (input ligand: none): 184 nM | apparent KD of K4 kissing-loop reporter [1]: 88.3 nM | apparent KD of K4 kissing-loop reporter [2]: 175 nM

UCUGGAGUAUAUGAUACCAGCAGUGAGAGACAGGAAGUAUAGUGAUGUUAUAUGAGAGAAUGCCCUUGGCAGCGUGUGCGGUGGG [SSTheophylB.R]
apparent KD of K4 kissing-loop reporter (input ligand: FMN 200 uM): 94.3 nM | apparent KD of K4 kissing-loop reporter (input ligand: arginine 13.2 mM): 85 nM | apparent KD of K4 kissing-loop reporter (input ligand: none): 71.1 nM | apparent KD of K4 kissing-loop reporter [1]: 106 nM | apparent KD of K4 kissing-loop reporter [2]: 62.7 nM

UCUUGUUCAUAGUGAUGUUAUGAGCUUAGAAAGGAUAUGAUCAACAUCAGAAGGUUCAAGGAUUCCCGACUCCAACUUCGGUUUC [theeternabot_sameState_KL_FMN_A_43]
apparent KD of K4 kissing-loop reporter (input ligand: FMN 200 uM): 280 nM | apparent KD of K4 kissing-loop reporter (input ligand: arginine 13.2 mM): 270 nM | apparent KD of K4 kissing-loop reporter (input ligand: none): 306 nM | apparent KD of K4 kissing-loop reporter [1]: 339 nM | apparent KD of K4 kissing-loop reporter [2]: 332 nM

UGACGUUUGGGAAGGAGCGGAAUGUAAUACGGAGCGCGUGGAGAUGCAGUGAUGUUGCAGAUCCAGGUAGGUCGCCCAAGGGACG [Zati]
apparent KD of K4 kissing-loop reporter (input ligand: FMN 200 uM): 95.3 nM | apparent KD of K4 kissing-loop reporter (input ligand: arginine 13.2 mM): 83.5 nM | apparent KD of K4 kissing-loop reporter (input ligand: none): 80.9 nM | apparent KD of K4 kissing-loop reporter [1]: 79.3 nM | apparent KD of K4 kissing-loop reporter [2]: 79.6 nM

UGACUGGAUGGAAGGAGCGCUAAACUCCUAGUGAUGUUAGGGACACGAGACAAAGUCUCGAGGCAGGUAGGUCGCCAUCUAGUCU [FiskerMod 7 - Jieux - Same State - Arginine B]
apparent KD of K4 kissing-loop reporter (input ligand: FMN 200 uM): 225 nM | apparent KD of K4 kissing-loop reporter (input ligand: arginine 13.2 mM): 198 nM | apparent KD of K4 kissing-loop reporter (input ligand: none): 197 nM | apparent KD of K4 kissing-loop reporter [1]: 250 nM | apparent KD of K4 kissing-loop reporter [2]: 212 nM

UGACUGGAUGGAAGGAGCGCUAAACUCCUAGUGAUGUUAGGGAUAUGAGGCAAAGCCUCGAAGCAGGUAGGUCGCCAUCUAGUCU [FiskerMod 20 - Jieux - Same State - Arginine B]
apparent KD of K4 kissing-loop reporter (input ligand: FMN 200 uM): 159 nM | apparent KD of K4 kissing-loop reporter (input ligand: arginine 13.2 mM): 114 nM | apparent KD of K4 kissing-loop reporter (input ligand: none): 148 nM | apparent KD of K4 kissing-loop reporter [1]: 160 nM | apparent KD of K4 kissing-loop reporter [2]: 156 nM
